This note sets out measurements from publication PMC3975686 (Journal of proteome research, 2013).

Test in all cases: ITC
On the technique in general: In ITC the heat of successive injections is recorded.

Experiment [1] concerns the target T1, human RhoGDI (human, UniProt P52565 1-204).
T1 sequence (looked up): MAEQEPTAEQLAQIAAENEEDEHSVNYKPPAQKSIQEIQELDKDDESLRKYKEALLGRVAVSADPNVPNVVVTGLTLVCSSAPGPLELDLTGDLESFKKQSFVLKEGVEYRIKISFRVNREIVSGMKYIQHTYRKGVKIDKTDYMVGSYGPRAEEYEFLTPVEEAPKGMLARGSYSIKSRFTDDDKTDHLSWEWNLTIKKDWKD

Experiment [2] has as its target T2, ezrin FERM domain (residues 1-297) (human, UniProt P15311 1-297).
The target in experiment [3] is T2, ezrin FERM domain (residues 1-297). This is another data set of the same source.

T2 sequence (P15311 1-297): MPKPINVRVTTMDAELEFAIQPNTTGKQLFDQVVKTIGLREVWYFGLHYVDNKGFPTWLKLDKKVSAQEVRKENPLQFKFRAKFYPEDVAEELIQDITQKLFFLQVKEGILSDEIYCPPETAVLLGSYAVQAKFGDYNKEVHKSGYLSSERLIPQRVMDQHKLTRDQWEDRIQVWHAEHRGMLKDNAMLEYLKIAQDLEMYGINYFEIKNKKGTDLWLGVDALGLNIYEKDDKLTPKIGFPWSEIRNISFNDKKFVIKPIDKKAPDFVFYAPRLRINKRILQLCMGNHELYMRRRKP

B1: human Cdc42C188S, GDP-bound (natural protein)
chain: not shown
Usually stoichiometry N stands for the number of molecules, sites or subunits per partner or assembly. On to B1, for which, in experiment [1], the Ka stood at 55700 ± 940 M⁻¹, the dH is -13.29 ± 0.08 kcal/mol and the “stoichiometry N” value was 0.853 ± 0.0003.

B2: ezrin C-terminal fragment (residues 477-586) (domain or fragment, human, UniProt P15311 477-586, looked up)
chain: VYEPVSYHVQESLQDEGAEPTGYSAELSSEGIRDDRNEEKRITEAEKNERVQRQLLTLSSELSQARDENKRTHNDIIHNENMRQGRDKYKTLRQIRQGNTKQRIDEFEAL
In experiment [2], B2 came in with a Ka of 1.13e+06 M⁻¹.

B3: IQGAP2 Repeats (IQGAP2 residues 211-591) (domain or fragment, human, UniProt Q13576 211-591, looked up)
chain: EAALHAAVIAINEAVEKGIAEQTVVTLRNPNAVLTLVDDNLAPEYQKELWDAKKKKEENARLKNSCISEEERDAYEELLTQAEIQGNINKVNRQAAVDHINAVIPEGDPENTLLALKKPEAQLPAVYPFAAAMYQNELFNLQKQNTMNYLAHEELLIAVEMLSAVALLNQALESNDLVSVQNQLRSPAIGLNNLDKAYVERYANTLLSVKLEVLSQGQDNLSWNEIQNCIDMVNAQIQEENDRVVAVGYINEAIDEGNPLRTLETLLLPTANISDVDPAHAQHYQDVLYHAKSQKLGDSESVSKVLWLDEIQQAVDDANVDKDRAKQWVTLVVDVNQCLEGKKSSDILSVLKSSTSNANDIIPECADKYYDALVKAKELKS
Take B3: in experiment [3], the dH is -3.98 ± 0.39 kcal/mol and the “stoichiometry N” value turned out to be 1.33 ± 0.0688.

B4: IQGAP1 Repeats (IQGAP1 residues 156-672), tag removed (domain or fragment, human, UniProt P46940 156-672, looked up)
chain: SLYLFKLGLAPQIQDLYGKVDFTEEEINNMKTELEKYGIQMPAFSKIGGILANELSVDEAALHAAVIAINEAIDRRIPADTFAALKNPNAMLVNLEEPLASTYQDILYQAKQDKMTNAKNRTENSERERDVYEELLTQAEIQGNINKVNTFSALANIDLALEQGDALALFRALQSPALGLRGLQQQNSDWYLKQLLSDKQQKRQSGQTDPLQKEELQSGVDAANSAAQQYQRRLAAVALINAAIQKGVAEKTVLELMNPEAQLPQVYPFAADLYQKELATLQRQSPEHNLTHPELSVAVEMLSSVALINRALESGDVNTVWKQLSSSVTGLTNIEEENCQRYLDELMKLKAQAHAENNEFITWNDIQACVDHVNLVVQEEHERILAIGLINEALDEGDAQKTLQALQIPAAKLEGVLAEVAQHYQDTLIRAKREKAQEIQDESAVLWLDEIQGGIWQSNKDTQEAQKFALGIFAINEAVESGDVGKTLSALRSPDVGLYGVIPECGETYHSDLAEAK
With B4, in experiment [3], the dH was -49.1 ± 15.6 kcal/mol and the “stoichiometry N” value was determined as 0.274 ± 0.0243.
